The values below come from article PMC12501226.

The Kd is the concentration at which binding is half-saturated. A low value points to tighter binding. What is called koff is a measure of how fast the partners let go of each other. A higher koff goes with a short-lived complex. What is called kon is the second-order rate constant of association. A high value points to faster complex formation.

For the assay, the target named is SARS-CoV-2 spike HexaPro protein (SARS-CoV-2). The assay is described as follows: SPR. In general terms: Surface plasmon resonance follows binding to a sensor surface in real time, without labels.

Regarding “ACE2 monomer (human extracellular ACE2 domain, residues 18-615, cut from ACE2-TEV-Fc) (from UniProt Q9BYF1 18-615) (domain or fragment)”, the Kd came out at 49 nM, the koff worked out at 0.0073 s⁻¹ and the kon was 150000 M⁻¹ s⁻¹. “T3A (collagen XVIII trimerization domain, 3-residue G/S linker, ACE2 18-615) (from UniProt P39060;Q9BYF1)” registered a Kd of 0.37 nM.

“T5A (collagen XVIII trimerization domain, 5-residue G/S linker, ACE2 18-615) (from UniProt P39060;Q9BYF1)”: the Kd came to 0.69 nM. On the same count and under the same terms, for “T1A (collagen XVIII trimerization domain, 1-residue G/S linker, ACE2 18-615) (from UniProt P39060;Q9BYF1)” the value was 0.1 nM.
